Here are results for 2 molecules from PMC7798916 (National Science Review, 2020).

What all share (conditions): both partners purified
Assay [1] has as its target T1, SARS-CoV-2 RBD (recombinant receptor binding domain of the S glycoprotein) (SARS-CoV-2, UniProt P0DTC2). Nature of the assay: BLI.
Assay [2] addresses T1, SARS-CoV-2 RBD (recombinant receptor …). Nature of the assay: ELISA. In general terms: In an ELISA, binding on a coated surface is turned into a signal by an enzyme label.
For assay [3] the target is unchanged. The assay is described as follows: cell-based immunofluorescent blocking assay.

B1: HB27 (humanized monoclonal antibody, IgG) (antibody, V domains shown)
VH: VKLVESGGGLVKPGGSLRLSCAASGFTFTNYGMSWVRQAPGKRLEWVAEISSGGSYTYYPDTVTGRFTISRDNAKNTLYLQMNSLRAEDTAVYYCARFRYGGGGTVDYWGQGTLVTVSS
VL: IVLTQSPTLSLSPGERATLSCRASESVDNYGISFMNWFQQKPGQAPRLLIYAASNQGSGIPSRFSGSGSGTDFSLTISSLEPEDFAVYFCQQSKEVPRIFGQGTKVEIL
notes: also called HB27 IgG; source: CHO cell line
Turning to B1, the Kd in assay [1] turned out to be 70 pM. For the same molecule, the EC50 in assay [2] was 500 pM; in assay [3], 5000 to 50000 pM.

B2: HB27 Fab fragment (Fab, V domains shown)
VH: VKLVESGGGLVKPGGSLRLSCAASGFTFTNYGMSWVRQAPGKRLEWVAEISSGGSYTYYPDTVTGRFTISRDNAKNTLYLQMNSLRAEDTAVYYCARFRYGGGGTVDYWGQGTLVTVSS
VL: IVLTQSPTLSLSPGERATLSCRASESVDNYGISFMNWFQQKPGQAPRLLIYAASNQGSGIPSRFSGSGSGTDFSLTISSLEPEDFAVYFCQQSKEVPRIFGQGTKVEIL
For the molecule B2, the Kd in assay [1] came out at 270 pM.

As usually defined, the Kd is a measure of binding affinity in units of concentration. For orientation: EC50 means the concentration giving half of the maximal effect.
